For two substances, co-IP mass spectrometry count results are on record in patent US20240261333A1, “NOVEL TARGETS FOR ENHANCING ANTI-TUMOR IMMUNITY” (THE BROAD INSTITUTE, INC., priority 2021, published 2024).

One test addresses ACSL3 (human) (UniProt O95573). Briefly: anti-FLAG co-IP from lysate of C-FLAG B3GNT2 cells, mass spectrometry.
Another test has as its target EEF2 (human) (UniProt P13639). Described as above.
Another test has as its target ELOC (human) (UniProt Q15369). Described as above.
The next test has as its target ERP44 (human) (UniProt Q9BS26). The description is as above.
A further test addresses FBXO6 (human) (UniProt Q9NRD1). Described as above.
A further test deals with H1FX (human) (UniProt Q92522). The description is as above.
The next test addresses HDGFL2 (human) (UniProt Q7Z4V5). The test is described as above.
In a further test the target is IFI16 (human) (UniProt Q16666). The description is as above.
A further test deals with IPO7 (human) (UniProt O95373). The description is as above.
The next test addresses KPNB1 (human) (UniProt Q14974). Described as above.
Another test has as its target KTN1 (human) (UniProt Q86UP2). The test is described as above.
In another test the target is PDIA4 (human) (UniProt P13667). The test is described as above.
A further test has as its target PGAM5 (human) (UniProt Q96HS1). The description is as above.
A further test has as its target PSMB6 (human) (UniProt P28072). Described as above.
The target of a further test is RCN1 (human) (UniProt Q15293). Described as above.
For another test, the target named is RPL34 (human) (UniProt P49207). The test is described as above.
Another test deals with RPS6 (human) (UniProt P62753). The test is described as above.
The target in another test is RRBP1 (human) (UniProt Q9P2E9). The test is described as above.
In a further test the target is TUBA1C (human) (UniProt Q9BQE3). The description is as above.
A further test has as its target UBTF (human) (UniProt P17480). The description is as above.
Another test concerns the target ZRANB2 (human) (UniProt O95218). The test is described as above.
The target in a further test is CAT (human) (UniProt P04040). Briefly: co-IP, anti-FLAG, lysate of cells with N-FLAG B3GNT2; mass spectrometry.
In a further test the target is GGCT (human) (UniProt O75223). The description is as above.
Another test concerns the target HSPA8 (human) (UniProt P11142). The description is as above.
In a further test the target is T1, MOV10 (human) (UniProt Q9HCE1).
T1 sequence (looked up): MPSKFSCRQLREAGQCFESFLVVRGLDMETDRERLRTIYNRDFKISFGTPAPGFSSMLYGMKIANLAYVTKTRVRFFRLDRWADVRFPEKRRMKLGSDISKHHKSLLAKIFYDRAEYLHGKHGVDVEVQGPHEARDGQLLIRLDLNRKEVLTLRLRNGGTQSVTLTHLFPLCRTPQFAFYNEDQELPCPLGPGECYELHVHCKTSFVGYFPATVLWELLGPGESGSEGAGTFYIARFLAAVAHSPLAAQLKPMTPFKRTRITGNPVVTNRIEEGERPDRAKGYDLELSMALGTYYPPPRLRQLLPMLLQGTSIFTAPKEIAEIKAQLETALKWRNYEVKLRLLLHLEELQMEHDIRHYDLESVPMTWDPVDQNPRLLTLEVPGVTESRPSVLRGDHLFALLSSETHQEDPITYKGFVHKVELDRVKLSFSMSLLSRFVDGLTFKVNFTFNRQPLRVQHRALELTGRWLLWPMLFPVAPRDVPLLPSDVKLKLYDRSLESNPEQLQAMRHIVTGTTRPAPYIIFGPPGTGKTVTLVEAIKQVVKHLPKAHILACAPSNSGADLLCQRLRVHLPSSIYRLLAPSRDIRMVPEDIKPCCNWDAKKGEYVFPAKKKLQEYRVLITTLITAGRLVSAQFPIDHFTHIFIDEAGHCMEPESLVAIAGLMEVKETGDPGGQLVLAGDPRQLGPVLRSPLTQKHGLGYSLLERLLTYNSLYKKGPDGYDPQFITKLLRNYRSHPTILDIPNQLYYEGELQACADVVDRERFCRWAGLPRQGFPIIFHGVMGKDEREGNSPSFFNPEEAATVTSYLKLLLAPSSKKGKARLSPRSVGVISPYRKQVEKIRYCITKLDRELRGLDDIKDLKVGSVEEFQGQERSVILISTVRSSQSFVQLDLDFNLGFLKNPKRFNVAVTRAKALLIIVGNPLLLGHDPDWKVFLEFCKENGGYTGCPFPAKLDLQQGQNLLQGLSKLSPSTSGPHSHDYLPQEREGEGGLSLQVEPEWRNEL
The description is as above.

A further test addresses RPL13 (human) (UniProt P26373). The test is described as above.

Chain of PDIA4 (human) (P13667 21-645 limits assumed): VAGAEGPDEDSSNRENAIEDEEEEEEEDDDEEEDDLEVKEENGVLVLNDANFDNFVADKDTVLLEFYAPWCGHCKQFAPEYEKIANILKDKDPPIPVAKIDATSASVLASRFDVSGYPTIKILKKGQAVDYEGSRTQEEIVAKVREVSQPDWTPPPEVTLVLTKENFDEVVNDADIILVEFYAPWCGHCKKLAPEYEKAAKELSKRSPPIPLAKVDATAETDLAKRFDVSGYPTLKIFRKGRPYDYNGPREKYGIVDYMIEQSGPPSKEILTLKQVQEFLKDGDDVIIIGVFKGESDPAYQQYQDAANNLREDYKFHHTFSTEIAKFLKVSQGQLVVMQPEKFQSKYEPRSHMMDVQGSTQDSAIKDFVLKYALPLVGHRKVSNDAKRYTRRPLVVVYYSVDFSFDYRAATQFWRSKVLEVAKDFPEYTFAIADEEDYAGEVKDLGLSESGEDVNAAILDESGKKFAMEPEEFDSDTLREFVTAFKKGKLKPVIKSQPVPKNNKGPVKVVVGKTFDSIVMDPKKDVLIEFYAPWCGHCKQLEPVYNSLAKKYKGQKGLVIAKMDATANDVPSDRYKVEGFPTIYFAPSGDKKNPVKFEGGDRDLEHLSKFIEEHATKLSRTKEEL
Chain of HDGFL2 (human) (Q7Z4V5 whole entry): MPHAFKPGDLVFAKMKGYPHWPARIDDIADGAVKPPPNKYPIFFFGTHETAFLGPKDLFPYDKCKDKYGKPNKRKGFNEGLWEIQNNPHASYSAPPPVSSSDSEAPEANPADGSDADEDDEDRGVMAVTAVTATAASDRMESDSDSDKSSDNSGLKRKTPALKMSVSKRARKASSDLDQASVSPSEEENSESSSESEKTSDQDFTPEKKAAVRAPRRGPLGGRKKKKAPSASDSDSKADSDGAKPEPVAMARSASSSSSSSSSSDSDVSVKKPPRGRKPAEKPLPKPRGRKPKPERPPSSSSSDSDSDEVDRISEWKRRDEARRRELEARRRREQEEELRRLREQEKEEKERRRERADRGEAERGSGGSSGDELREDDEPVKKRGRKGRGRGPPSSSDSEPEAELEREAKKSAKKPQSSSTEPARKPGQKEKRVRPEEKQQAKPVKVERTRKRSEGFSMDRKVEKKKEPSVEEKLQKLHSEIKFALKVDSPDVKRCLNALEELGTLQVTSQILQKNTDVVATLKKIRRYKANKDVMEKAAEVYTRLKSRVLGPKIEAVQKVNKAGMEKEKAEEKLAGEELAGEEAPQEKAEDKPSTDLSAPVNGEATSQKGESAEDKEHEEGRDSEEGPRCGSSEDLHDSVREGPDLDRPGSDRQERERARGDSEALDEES
Chain of GGCT (human) (O75223 whole entry): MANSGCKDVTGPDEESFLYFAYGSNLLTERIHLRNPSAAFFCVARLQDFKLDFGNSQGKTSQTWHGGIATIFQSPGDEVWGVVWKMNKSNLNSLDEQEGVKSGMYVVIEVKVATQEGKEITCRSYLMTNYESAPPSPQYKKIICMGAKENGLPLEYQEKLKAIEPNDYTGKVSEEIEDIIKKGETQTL
Chain of PGAM5 (human) (Q96HS1 whole entry): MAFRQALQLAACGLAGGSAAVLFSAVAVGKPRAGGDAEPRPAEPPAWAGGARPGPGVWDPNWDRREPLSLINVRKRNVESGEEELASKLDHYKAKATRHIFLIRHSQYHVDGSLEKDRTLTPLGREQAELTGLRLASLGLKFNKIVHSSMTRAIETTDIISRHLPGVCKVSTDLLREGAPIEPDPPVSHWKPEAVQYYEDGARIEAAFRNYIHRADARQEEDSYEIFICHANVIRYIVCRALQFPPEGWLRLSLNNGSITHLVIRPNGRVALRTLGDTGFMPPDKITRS
Chain of RCN1 (human) (Q15293 30-331 limits assumed): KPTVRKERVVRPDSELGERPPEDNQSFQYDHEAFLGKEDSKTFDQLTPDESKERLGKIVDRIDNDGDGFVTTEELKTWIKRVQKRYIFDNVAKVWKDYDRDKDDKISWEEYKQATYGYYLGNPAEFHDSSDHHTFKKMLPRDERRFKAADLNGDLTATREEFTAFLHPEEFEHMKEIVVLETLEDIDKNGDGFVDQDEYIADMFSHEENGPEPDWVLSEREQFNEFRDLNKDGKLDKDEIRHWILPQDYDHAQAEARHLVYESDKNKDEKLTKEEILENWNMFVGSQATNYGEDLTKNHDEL
Chain of ERP44 (human) (Q9BS26 30-406 limits assumed): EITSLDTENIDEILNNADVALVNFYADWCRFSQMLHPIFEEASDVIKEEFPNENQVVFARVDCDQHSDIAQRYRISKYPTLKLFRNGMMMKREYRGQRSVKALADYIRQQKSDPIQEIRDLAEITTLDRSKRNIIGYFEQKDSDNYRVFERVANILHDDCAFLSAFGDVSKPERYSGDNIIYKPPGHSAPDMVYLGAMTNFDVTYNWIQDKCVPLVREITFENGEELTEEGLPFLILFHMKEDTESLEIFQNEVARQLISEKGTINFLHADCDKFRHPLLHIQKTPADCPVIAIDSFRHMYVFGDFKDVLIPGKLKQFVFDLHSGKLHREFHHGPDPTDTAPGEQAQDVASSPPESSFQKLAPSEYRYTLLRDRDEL
Chain of ELOC (human) (Q15369 whole entry): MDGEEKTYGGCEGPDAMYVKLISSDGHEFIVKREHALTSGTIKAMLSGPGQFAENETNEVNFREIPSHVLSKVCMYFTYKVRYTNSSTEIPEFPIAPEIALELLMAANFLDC
Chain of ZRANB2 (human) (O95218 other isoform, or with tags, fused parts or gaps limits assumed): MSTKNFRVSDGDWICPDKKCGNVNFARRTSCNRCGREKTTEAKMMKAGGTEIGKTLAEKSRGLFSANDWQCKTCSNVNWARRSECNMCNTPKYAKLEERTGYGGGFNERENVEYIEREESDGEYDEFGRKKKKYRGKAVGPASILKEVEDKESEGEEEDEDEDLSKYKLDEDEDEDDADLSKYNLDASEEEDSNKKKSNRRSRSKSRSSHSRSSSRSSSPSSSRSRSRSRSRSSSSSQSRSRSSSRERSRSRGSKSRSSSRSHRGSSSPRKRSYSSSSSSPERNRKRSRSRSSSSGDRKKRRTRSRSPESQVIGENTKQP
Chain of KTN1 (human) (Q86UP2 whole entry): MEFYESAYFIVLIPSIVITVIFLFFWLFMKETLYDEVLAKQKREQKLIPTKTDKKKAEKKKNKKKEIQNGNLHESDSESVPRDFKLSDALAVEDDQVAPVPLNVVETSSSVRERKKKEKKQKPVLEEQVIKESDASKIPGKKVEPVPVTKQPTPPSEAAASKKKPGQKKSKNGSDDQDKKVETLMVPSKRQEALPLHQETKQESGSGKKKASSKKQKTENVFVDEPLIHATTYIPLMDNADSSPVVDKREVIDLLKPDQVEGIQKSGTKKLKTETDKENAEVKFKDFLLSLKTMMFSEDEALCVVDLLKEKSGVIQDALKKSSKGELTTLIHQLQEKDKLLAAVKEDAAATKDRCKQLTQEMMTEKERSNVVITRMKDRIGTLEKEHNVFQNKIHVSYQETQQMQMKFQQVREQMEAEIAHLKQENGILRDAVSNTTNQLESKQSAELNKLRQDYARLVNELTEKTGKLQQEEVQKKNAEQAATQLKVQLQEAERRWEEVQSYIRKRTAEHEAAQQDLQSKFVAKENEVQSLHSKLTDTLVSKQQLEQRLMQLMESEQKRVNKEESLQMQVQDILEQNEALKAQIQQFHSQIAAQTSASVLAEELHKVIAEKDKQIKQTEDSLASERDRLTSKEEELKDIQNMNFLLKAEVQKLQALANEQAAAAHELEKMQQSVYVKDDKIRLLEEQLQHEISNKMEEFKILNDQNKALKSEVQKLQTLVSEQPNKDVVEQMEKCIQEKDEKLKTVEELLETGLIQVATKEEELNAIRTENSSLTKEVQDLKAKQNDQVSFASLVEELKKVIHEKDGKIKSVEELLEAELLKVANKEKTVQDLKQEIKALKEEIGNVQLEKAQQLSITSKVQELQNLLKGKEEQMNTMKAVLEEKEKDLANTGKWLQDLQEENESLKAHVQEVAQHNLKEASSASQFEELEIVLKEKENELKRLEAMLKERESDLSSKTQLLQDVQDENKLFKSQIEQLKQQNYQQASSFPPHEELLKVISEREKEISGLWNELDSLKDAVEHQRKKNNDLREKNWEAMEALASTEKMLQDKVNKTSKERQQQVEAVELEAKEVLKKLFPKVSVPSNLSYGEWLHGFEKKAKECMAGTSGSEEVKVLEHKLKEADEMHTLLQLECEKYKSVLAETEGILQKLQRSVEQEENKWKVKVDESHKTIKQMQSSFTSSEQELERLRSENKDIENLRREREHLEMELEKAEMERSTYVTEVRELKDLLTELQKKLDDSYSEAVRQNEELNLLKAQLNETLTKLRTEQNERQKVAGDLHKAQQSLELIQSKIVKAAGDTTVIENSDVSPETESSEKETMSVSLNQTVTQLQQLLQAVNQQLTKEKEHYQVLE
Chain of IFI16 (human) (Q16666 other isoform, or with tags, fused parts or gaps limits assumed): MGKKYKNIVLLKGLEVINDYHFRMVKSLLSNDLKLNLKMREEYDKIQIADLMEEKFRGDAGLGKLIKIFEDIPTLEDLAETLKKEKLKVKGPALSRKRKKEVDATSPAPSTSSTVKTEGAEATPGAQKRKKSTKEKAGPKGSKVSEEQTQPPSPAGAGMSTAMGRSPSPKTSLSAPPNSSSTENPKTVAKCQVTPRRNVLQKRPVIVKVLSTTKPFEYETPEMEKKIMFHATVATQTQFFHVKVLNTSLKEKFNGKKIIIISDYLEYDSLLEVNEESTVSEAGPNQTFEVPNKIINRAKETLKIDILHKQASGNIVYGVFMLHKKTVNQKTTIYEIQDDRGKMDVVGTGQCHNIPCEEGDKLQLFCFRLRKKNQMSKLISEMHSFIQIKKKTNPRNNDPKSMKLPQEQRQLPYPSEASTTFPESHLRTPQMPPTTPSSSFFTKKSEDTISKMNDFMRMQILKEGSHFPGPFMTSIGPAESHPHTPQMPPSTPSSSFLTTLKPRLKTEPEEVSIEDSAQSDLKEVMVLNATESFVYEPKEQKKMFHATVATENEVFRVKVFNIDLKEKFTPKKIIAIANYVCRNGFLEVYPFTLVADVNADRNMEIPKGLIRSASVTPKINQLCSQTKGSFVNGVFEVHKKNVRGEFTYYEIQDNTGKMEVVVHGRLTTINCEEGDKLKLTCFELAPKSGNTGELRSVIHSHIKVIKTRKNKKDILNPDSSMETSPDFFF

“C-terminal FLAG tagged B3GNT2 (from UniProt Q9NY97 1-397) (enzyme)”: the co-IP mass spectrometry count in the test with ACSL3 (human) worked out at 5; with EEF2 (human) it was 5; in the test with ELOC (human) it was 2; with ERP44 (human), 2; with FBXO6 (human) it was 5; with H1FX (human) it was 2. In addition, the co-IP mass spectrometry count came out at 2 in the test with HDGFL2 (human); 2 with IFI16 (human); 9 with IPO7 (human); 7 with KPNB1 (human); 2 with KTN1 (human); 9 with PDIA4 (human). In addition, the co-IP mass spectrometry count in the test with PGAM5 (human) was found to be 5; with PSMB6 (human) it was 3; with RCN1 (human), 9; in the test with RPL34 (human), 2; with RPS6 (human) it was 20; with RRBP1 (human), 16. Moreover, the co-IP mass spectrometry count in the test with TUBA1C (human) was found to be 63; with UBTF (human) it was 2; with ZRANB2 (human), 3.

“N-terminal FLAG tagged B3GNT2 (from UniProt Q9NY97 1-397) (enzyme)”: the co-IP mass spectrometry count with CAT (human) came out at 6; with GGCT (human), 3; in the test with HSPA8 (human), 41; with MOV10 (human), 4; with RPL13 (human) it was 15.
